Data taken from patent US20180155451A1 (published 2018).

B1: GpH7-A5/GpH7-B3 variant Q295_16H/GpL16-k0 (antibody, human IgG1, kappa)
heavy 1: not shown
heavy 2: not shown
light: DIVMTQSPLSLPVTPGEPASISCQASESLVHSNRNTYLHWYLQKPGQSPQLLIYKVSNRFSGVPDRFSGSGSGTDFTLKISRVEAEDVGVYYCSQNTHVPPTFGQGTKVEIERTVAAPSVFIFPPSDEQLKSGTASVVCLLNNFYPREAKVQWKVDNALQSGNSQESVTEQDSKDSTYSLSSTLTLSKADYEKHKVYACEVTHQGLSSPVTKSFNRGEC
notes: mutation in one H chain only; also called He Ab Q295_16H; Q295H
B2: GpH7-A5/GpH7-B3 variant Q295_04F/GpL16-k0 (antibody, human IgG1, kappa)
heavy 1: not shown
heavy 2: not shown
light: B1 light
notes: mutation in one H chain only; also called He Ab Q295_04F; Q295F
B3: GpH7-A5/GpH7-B3 variant P271_15Y/GpL16-k0 (antibody, human IgG1, kappa)
heavy 1: not shown
heavy 2: not shown
light: B1 light
notes: mutation in one H chain only; also called He Ab P271_15Y; P271Y
B4: GpH7-A5/GpH7-B3 variant P329_02A/GpL16-k0 (antibody, human IgG1, kappa)
heavy 1: not shown
heavy 2: not shown
light: B1 light
notes: mutation in one H chain only; also called He Ab P329_02A; P329A
B5: GpH7-A5/GpH7-B3 variant P271_14T/GpL16-k0 (antibody, human IgG1, kappa)
heavy 1: not shown
heavy 2: not shown
light: B1 light
notes: mutation in one H chain only; also called He Ab P271_14T; P271T
B6: GpH7-B3 variant Q295_18N/GpL16-k0 (antibody, human IgG1, kappa)
heavy: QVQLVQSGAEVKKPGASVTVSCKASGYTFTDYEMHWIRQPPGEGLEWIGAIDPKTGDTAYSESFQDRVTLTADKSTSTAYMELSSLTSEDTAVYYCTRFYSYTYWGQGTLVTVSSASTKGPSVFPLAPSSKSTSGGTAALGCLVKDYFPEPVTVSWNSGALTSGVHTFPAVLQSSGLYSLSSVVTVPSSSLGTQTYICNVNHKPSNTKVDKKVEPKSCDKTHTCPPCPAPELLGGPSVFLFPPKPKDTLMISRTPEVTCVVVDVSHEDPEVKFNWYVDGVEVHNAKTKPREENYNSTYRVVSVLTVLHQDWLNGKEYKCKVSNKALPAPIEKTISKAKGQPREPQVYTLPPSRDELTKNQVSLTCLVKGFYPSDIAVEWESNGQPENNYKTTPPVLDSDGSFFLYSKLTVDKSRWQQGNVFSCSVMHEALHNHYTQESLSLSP
light: B1 light
notes: mutation in both H chains; also called Ho Ab Q295_18N; Q295N
B7: GpH7-A5/GpH7-B3 variant Q295_05P/GpL16-k0 (antibody, human IgG1, kappa)
heavy 1: not shown
heavy 2: not shown
light: B1 light
notes: mutation in one H chain only; also called He Ab Q295_05P; Q295P
B8: GpH7-B3 variant Q295_14T/GpL16-k0 (antibody, human IgG1, kappa)
heavy: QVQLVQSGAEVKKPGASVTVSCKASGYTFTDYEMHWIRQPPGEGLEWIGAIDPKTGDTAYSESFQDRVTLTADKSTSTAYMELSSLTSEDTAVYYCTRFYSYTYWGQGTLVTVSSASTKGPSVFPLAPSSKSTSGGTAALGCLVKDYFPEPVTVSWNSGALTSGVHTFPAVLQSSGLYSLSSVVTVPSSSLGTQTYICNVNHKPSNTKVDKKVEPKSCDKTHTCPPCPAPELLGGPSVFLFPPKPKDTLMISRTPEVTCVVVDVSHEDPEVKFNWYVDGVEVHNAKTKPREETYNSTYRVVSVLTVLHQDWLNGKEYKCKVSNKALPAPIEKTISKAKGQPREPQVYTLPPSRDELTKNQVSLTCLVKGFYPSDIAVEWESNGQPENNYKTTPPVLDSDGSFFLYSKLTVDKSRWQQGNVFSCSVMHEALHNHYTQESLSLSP
light: B1 light
notes: mutation in both H chains; also called Ho Ab Q295_14T; Q295T
B9: GpH7-B3 variant Q295_15Y/GpL16-k0 (antibody, human IgG1, kappa)
heavy: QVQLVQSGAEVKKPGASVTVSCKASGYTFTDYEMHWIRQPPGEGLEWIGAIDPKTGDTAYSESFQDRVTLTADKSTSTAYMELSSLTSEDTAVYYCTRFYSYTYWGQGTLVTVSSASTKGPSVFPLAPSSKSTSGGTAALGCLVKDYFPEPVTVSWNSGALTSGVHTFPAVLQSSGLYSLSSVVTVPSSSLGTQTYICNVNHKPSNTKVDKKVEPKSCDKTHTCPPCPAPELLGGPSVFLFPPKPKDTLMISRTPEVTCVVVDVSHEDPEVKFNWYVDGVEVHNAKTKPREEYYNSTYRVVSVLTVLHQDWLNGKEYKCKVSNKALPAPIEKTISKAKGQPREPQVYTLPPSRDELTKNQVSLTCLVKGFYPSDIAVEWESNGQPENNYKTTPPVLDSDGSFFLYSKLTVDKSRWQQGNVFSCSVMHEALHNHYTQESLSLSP
light: B1 light
notes: mutation in both H chains; also called Ho Ab Q295_15Y; Q295Y
B10: GpH7-A5/GpH7-B3 variant S239_01G/GpL16-k0 (antibody, human IgG1, kappa)
heavy 1: not shown
heavy 2: not shown
light: B1 light
notes: mutation in one H chain only; also called He Ab S239_01G; S239G
B11: GpH7-A5/GpH7-B3 variant Q295_09D/GpL16-k0 (antibody, human IgG1, kappa)
heavy 1: not shown
heavy 2: not shown
light: B1 light
notes: mutation in one H chain only; also called He Ab Q295_09D; Q295D
B12: GpH7-B3 variant S239_01G/GpL16-k0 (antibody, human IgG1, kappa)
heavy: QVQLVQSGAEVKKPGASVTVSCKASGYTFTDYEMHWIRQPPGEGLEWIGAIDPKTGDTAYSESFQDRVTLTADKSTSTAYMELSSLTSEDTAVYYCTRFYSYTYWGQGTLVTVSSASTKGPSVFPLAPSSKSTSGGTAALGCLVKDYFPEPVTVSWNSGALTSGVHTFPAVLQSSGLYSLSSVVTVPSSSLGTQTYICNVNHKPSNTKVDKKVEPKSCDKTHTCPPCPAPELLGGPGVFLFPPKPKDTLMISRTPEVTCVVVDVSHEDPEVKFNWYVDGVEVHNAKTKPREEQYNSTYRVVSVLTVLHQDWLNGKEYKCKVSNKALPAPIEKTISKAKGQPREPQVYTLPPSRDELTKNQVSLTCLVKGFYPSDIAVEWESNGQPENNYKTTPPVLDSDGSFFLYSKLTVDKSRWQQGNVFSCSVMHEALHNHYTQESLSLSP
light: B1 light
notes: mutation in both H chains; also called Ho Ab S239_01G; S239G
B13: GpH7-A5/GpH7-B3 variant Q295_07I/GpL16-k0 (antibody, human IgG1, kappa)
heavy 1: not shown
heavy 2: not shown
light: B1 light
notes: mutation in one H chain only; also called He Ab Q295_07I; Q295I
B14: GpH7-A5/GpH7-B3 variant Q295_08L/GpL16-k0 (antibody, human IgG1, kappa)
heavy 1: not shown
heavy 2: not shown
light: B1 light
notes: mutation in one H chain only; also called He Ab Q295_08L; Q295L
B15: GpH7-A5/GpH7-B3 variant Q295_11K/GpL16-k0 (antibody, human IgG1, kappa)
heavy 1: not shown
heavy 2: not shown
light: B1 light
notes: mutation in one H chain only; also called He Ab Q295_11K; Q295K
B16: GpH7-A5/GpH7-B3 variant Q295_15Y/GpL16-k0 (antibody, human IgG1, kappa)
heavy 1: not shown
heavy 2: not shown
light: B1 light
notes: mutation in one H chain only; also called He Ab Q295_15Y; Q295Y

Assays:
[1] = molecular target: T1, FcγRIa extracellular domain with C-terminal His tag (human, UniProt P12314 16-292); assay: SPR Biacore, relative FcγRIa binding vs GpH7-A5/GpH7-B3/GpL16-k0
T1 construct: extracellular domain; also called FcgRI; CD64; not shown: His tag at the C terminus

[2] = molecular target: T1, FcγRIa extracellular domain with …; assay: SPR Biacore, relative FcγRIa binding vs GpH7-B3/GpL16-k0

T1 sequence (P12314 16-292): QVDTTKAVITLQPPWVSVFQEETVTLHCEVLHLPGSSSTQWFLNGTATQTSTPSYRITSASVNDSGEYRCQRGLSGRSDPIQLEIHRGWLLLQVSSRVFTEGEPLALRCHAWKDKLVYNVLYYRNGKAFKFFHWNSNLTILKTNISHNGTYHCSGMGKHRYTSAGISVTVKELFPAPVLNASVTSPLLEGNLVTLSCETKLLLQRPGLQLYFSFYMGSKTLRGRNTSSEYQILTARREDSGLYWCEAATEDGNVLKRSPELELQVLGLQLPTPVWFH

| Binder | He/Con_1a [1] | Ho/Con_1a [2] |
| --- | --- | --- |
| B1 | 102 % of HeCon Ab (=100) | – |
| B2 | 102 % of HeCon Ab (=100) | – |
| B3 | 103 % of HeCon Ab (=100) | – |
| B4 | 102 % of HeCon Ab (=100) | – |
| B5 | 102 % of HeCon Ab (=100) | – |
| B6 | – | 101 % of HoCon Ab (=100) |
| B7 | 103 % of HeCon Ab (=100) | – |
| B8 | – | 102 % of HoCon Ab (=100) |
| B9 | – | 97 % of HoCon Ab (=100) |
| B10 | 101 % of HeCon Ab (=100) | – |
| B11 | 100 % of HeCon Ab (=100) | – |
| B12 | – | 101 % of HoCon Ab (=100) |
| B13 | 103 % of HeCon Ab (=100) | – |
| B14 | 105 % of HeCon Ab (=100) | – |
| B15 | 101 % of HeCon Ab (=100) | – |
| B16 | 102 % of HeCon Ab (=100) | – |
